Experiment [1] concerns the target T1, HiLyte488 labelled Aβ1-42 protofibrils (UniProt P05067 672-713, HiLyte488 fluorophore on part of the peptides (labelled and unlabelled Aβ1-42 monomers mixed 1:5)). In words: cell-based or functional assay.
The target of experiment [2] is T2, Aβ1-42 (rPeptide, A-1167-2) (UniProt P05067 672-713).
T2 construct: domain: Aβ1-42; also called Abeta 1-42
Nature of the experiment: direct ELISA, coated Aβ1-42. Background: In an ELISA, binding on a coated surface is turned into a signal by an enzyme label.

Experiment [3] has as its target T3, biotin-labelled Aβ1-40 monomer (AnaSpec, AS-61483-01) (UniProt P05067 672-711, biotin label, position not stated).
T3 construct: domain: Aβ1-40; also called biotin-conjugated Aβ40 monomer; biotin-Aβ monomer
Nature of the experiment: capture ELISA, coated antibody, biotin-Aβ1-40 monomer. As to the method:
The plate was incubated for 1 h at RT and washed 3 times with PBST. The plate was then incubated with HRP-conjugated streptavidin (Thermo Fisher Scientific, SNN2004) at 1:5000 diluted in 1% BSA for 20 min at RT and washed 3 times. TMB Stabilized Chromogen substrate solution (Life Technologies, SB02) was added to the plate, and the reaction was stopped by adding 1M sulfuric acid. The absorbance at 450 nm was measured in a plate reader.
(§1) A 96-well plate was coated with 5 μg/mL of antibodies overnight at RT. The plate was then treated with diluents of biotin-labelled Aβ₁₋₄₀ monomers (AnaSpec, AS-61483-01, 4-fold serial dilutions with concentrations in the range of 0-1000 nM) for 1 h at RT. The binding of biotin-labelled Aβ₁₋₄₀ monomers with immobilized antibody was detected by HRP-conjugated streptavidin and TMB, as described in Example 2.

Experiment [4] deals with T2, Aβ1-42 (rPeptide, A-1167-2). Nature of the experiment: direct ELISA, coated Aβ1-42. The source holds these as a separate data set.
The target is the same in experiment [5]. In words: direct ELISA, coated Aβ1-42. This is another data set of the same source.
Experiment [6] addresses T4, pyroglutamate-modified Aβ (Aβp3-42) (AnaSpec, AS-29907-01) (UniProt P05067 674-713, pyroglutamate at Aβ position 3 (the N-terminus)).
T4 construct: domain: Aβp3-42; also called Abeta p3-42
In words: direct ELISA, coated Aβp3-42.

Experiment [7] concerns the target T3, biotin-labelled Aβ1-40 monomer …. Nature of the experiment: capture ELISA, coated antibody, biotin-Aβ1-40 monomer. This is another data set of the same source.
The target of experiment [8] is T4, pyroglutamate-modified Aβ (Aβp3-42) …. In words: direct ELISA, coated Aβp3-42. As to the method: After 3 washes with 1× Phosphate-Buffered Saline, 0.1% Tween 20 (PBST), each plate was blocked with 1% BSA in PBS for 1 h at room temperature (RT). Diluents of Aβ antibodies (3-fold serial dilutions with concentrations in the range of 0-100 nM) were added to plates. The plate was incubated for 1 h at RT and washed 3 times. The plate was then incubated with HRP conjugated goat anti-mouse IgG (Thermo Fisher Scientific, G-21040; thermofisher.com) 1:5000 diluted in 1% BSA for 1 h at RT and washed 3 times. TMB (3,3′,5,5;-tetramethylbenzidine) Stabilized Chromogen substrate solution (Life Technologies (Thermo Fisher Scientific) SB02) was added to the plate, and the reaction was stopped by adding 1M sulfuric acid. The absorbance at 450 nm was measured in a plate reader.
(§2) Direct ELISA was used to test each antibody's affinity for Aβ₁₋₄₂ and pyroglutamate-modified Aβ (Aβₚ₃₋₄₂). Plates were coated with 0.5 μM of Aβ₁₋₄₂ (rPeptide, A-1167-2) or Aβₚ₃₋₄₂ (AnaSpec, AS-29907-01) for 2 h at 4° C. Diluents of antibodies (3-fold serial dilutions with concentrations in the range of 0-100 nM) were added to the plate for 1 h at RT. Binding of antibody to immobilized Aβ on each plate was detected by HRP-labeled secondary antibody and TMB substrate, as described in Example 2.
This is another data set of the same source.

Experiment [9] has as its target T1, HiLyte488 labelled Aβ1-42 protofibrils. Nature of the experiment: cell-based or functional assay. This is another data set of the same source.
Experiment [10] has the same target. In words: cell-based or functional assay. This is another data set of the same source.
The target in experiment [11] is T4, pyroglutamate-modified Aβ (Aβp3-42) …. Nature of the experiment: direct ELISA, coated Aβp3-42. The procedure: as §2
The source holds these as a separate data set.

In experiment [12] the target is T2, Aβ1-42 (rPeptide, A-1167-2). In words: direct ELISA, coated Aβ1-42. As to the method: as §2
The source holds these as a separate data set.

Experiment [13] concerns the target T3, biotin-labelled Aβ1-40 monomer …. Nature of the experiment: capture ELISA, coated antibody, biotin-Aβ1-40 monomer. As to the method: as §1
The source holds these as a separate data set.

Where two headings read alike, the source gives them in different places.

The results in this text go back to patent publication US20240301046A1 (MABWELL THERAPEUTICS, published 2024).

Usually EC50 stands for the midpoint of the concentration-response curve.

B1: 18P01A(mIgG2a) (antibody)
heavy: EVQLVESGGGLVQPGGSLKLSCAVSGFTFSGSAMHWVRQASGKGLEWVGRIRSKANSYATAYAASVKGRFTISRDDSKNTAFLQMNSLKTEDTAVYYCTSHAPNFDAFDIWGQGTMVTVSSASTKGPSVFPLAPCSRSTSESTAALGCLVKDYFPEPVTVSWNSGALTSGVHTFPAVLQSSGLYSLSSVVTVPSSNFGTQTYTCNVDHKPSNTKVDKTVERKCPPCKCPAPNLLGGPSVFIFPPKIKDVLMISLSPIVTCVVVDVSEDDPDVQISWFVNNVEVHTAQTQTHREDYNSTLRVVSALPIQHQDWMSGKEFKCKVNNKDLPAPIERTISKPKGSVRAPQVYVLPPPEEEMTKKQVTLTCMVTDFMPEDIYVEWTNNGKTELNYKNTEPVLDSDGSYFMYSKLRVEKKNWVERNSYSCSVVHEGLHNHHTTKSFSRTPGK
light: QSVLTQPPSVSAAPGQKVTISCSGSSSNIGNHYVSWYQQLPGTAPKFFIYDNSKRPSGIPDRFSGSKSGTSATLGITGLQTGDEADYYCGTWDSSLSTYVFGTGTKVTVLGQPKAAPSVTLFPPSSEELQANKATLVCLISDFYPGAVTVAWKADSSPVKAGVETTTPSKQSNNKYAASSYLSLTPEQWKSHRSYSCQVTHEGSTVEKTVAPTECS
notes: chimeric: human F(ab')2, mouse IgG2a CH2-CH3, recombinant
In the case of B1, the “ADCP (RFU)” value in experiment [1] worked out at 488000 RFU. In addition, the EC50 came to 0.087 nM in experiment [2] and 248 nM in experiment [3].

B2: 18P01A(hIgG1) (antibody)
heavy: not shown
light: QSVLTQPPSVSAAPGQKVTISCSGSSSNIGNHYVSWYQQLPGTAPKFFIYDNSKRPSGIPDRFSGSKSGTSATLGITGLQTGDEADYYCGTWDSSLSTYVFGTGTKVTVLGQPKAAPSVTLFPPSSEELQANKATLVCLISDFYPGAVTVAWKADSSPVKAGVETTTPSKQSNNKYAASSYLSLTPEQWKSHRSYSCQVTHEGSTVEKTVAPTECS
notes: fully human IgG1 lambda, expressed in CHO cells; also called Fully human 18P01A (hlgG1); fully human 18P01A
For the molecule B2, the “fold increase of EC50 against the original chimeric 18P01A” value in experiment [4] is greater than 800 fold. Further, the EC50 was determined as 50 nM in [5], 196 nM in [6] and 917 nM in experiment [7].

B3: 17P04A(mIgG2a) (antibody)
heavy: EVQLVESGGGLVKPGGSLRLSCAASGFTLSSFSMNWVRQAPGKGLEWVSSISSRRTYIYYADSAKGRFTFSRDNAKNSLYLQMNSLRAEDSAVYYCARGGYIGSPNAYDIWGQGTMVTVSSASTKGPSVFPLAPCSRSTSESTAALGCLVKDYFPEPVTVSWNSGALTSGVHTFPAVLQSSGLYSLSSVVTVPSSNFGTQTYTCNVDHKPSNTKVDKTVERKCPPCKCPAPNLLGGPSVFIFPPKIKDVLMISLSPIVTCVVVDVSEDDPDVQISWFVNNVEVHTAQTQTHREDYNSTLRVVSALPIQHQDWMSGKEFKCKVNNKDLPAPIERTISKPKGSVRAPQVYVLPPPEEEMTKKQVTLTCMVTDFMPEDIYVEWTNNGKTELNYKNTEPVLDSDGSYFMYSKLRVEKKNWVERNSYSCSVVHEGLHNHHTTKSFSRTPGK
light: QTVVTQEPSLTVSPGGTVTLTCASSTGAVTSDYYPNWFQQKPGQAPRALIYSASTKHSWTPARFSGSLLGGKAALTLSGVQPEDEADYYCLLYYGGAWVFGGGTKLTVLGQPKAAPSVTLFPPSSEELQANKATLVCLISDFYPGAVTVAWKADSSPVKAGVETTTPSKQSNNKYAASSYLSLTPEQWKSHRSYSCQVTHEGSTVEKTVAPTECS
notes: as for B1
For the molecule B3, in experiment [1], the “ADCP (RFU)” value turned out to be 375000 RFU. In addition, the results for the EC50 in experiment [2], in experiment [8] and in experiment [3] were 0.057 nM, 19.4 nM and 59 nM, respectively.

B4: 17P04A(hIgG1) (antibody)
heavy: not shown
light: QTVVTQEPSLTVSPGGTVTLTCASSTGAVTSDYYPNWFQQKPGQAPRALIYSASTKHSWTPARFSGSLLGGKAALTLSGVQPEDEADYYCLLYYGGAWVFGGGTKLTVLGQPKAAPSVTLFPPSSEELQANKATLVCLISDFYPGAVTVAWKADSSPVKAGVETTTPSKQSNNKYAASSYLSLTPEQWKSHRSYSCQVTHEGSTVEKTVAPTECS
notes: fully human IgG1 lambda, expressed in CHO cells; also called Fully human 17P04A (hlgG1)
Regarding B4, the EC50 was 0.062 nM in [5], 38.7 nM in [6] and 33.8 nM in experiment [7].

B5: 17P04A (mIgG1) (antibody, V domains shown)
VH: EVQLVESGGGLVKPGGSLRLSCAASGFTLSSFSMNWVRQAPGKGLEWVSSISSRRTYIYYADSAKGRFTFSRDNAKNSLYLQMNSLRAEDSAVYYCARGGYIGSPNAYDIWGQGTMVTVSS
VL: QTVVTQEPSLTVSPGGTVTLTCASSTGAVTSDYYPNWFQQKPGQAPRALIYSASTKHSWTPARFSGSLLGGKAALTLSGVQPEDEADYYCLLYYGGAWVFGGGTKLTVL
notes: chimeric: fully human F(ab')2, mouse IgG1 CH2-CH3; also called 17P64A; 17P4A
For the molecule B5, the “relative ADCP” value in experiment [9] was 0.79 relative to ADCP response of rfmAb-1. The entries for the “ADCP (RFU)” value in experiment [10] and in [1] were 284000 RFU and 328000 RFU, respectively. The EC50 in experiment [4] was less than 0.1 nM; in [11], greater than 50 nM; in experiment [12] it was 0.045 nM; in experiment [5], 0.045 nM; in experiment [2], 0.045 nM; in experiment [6], 203 nM. The EC50 is 203 nM in experiment [8], 35.2 nM in [13], 35.2 nM in experiment [7] and 35.2 nM in [3].

B6: 18P01A (mIgG1) (antibody, V domains shown)
VH: EVQLVESGGGLVQPGGSLKLSCAVSGFTFSGSAMHWVRQASGKGLEWVGRIRSKANSYATAYAASVKGRFTISRDDSKNTAFLQMNSLKTEDTAVYYCTSHAPNFDAFDIWGQGTMVTVSS
VL: QSVLTQPPSVSAAPGQKVTISCSGSSSNIGNHYVSWYQQLPGTAPKFFIYDNSKRPSGIPDRFSGSKSGTSATLGITGLQTGDEADYYCGTWDSSLSTYVFGTGTKVTVL
notes: chimeric: fully human F(ab')2 (human VH, VL, CH1, CL), mouse IgG1 CH2-CH3; also called Chimeric mouse 18P01A (mlgG1); Original 18P01A (mlgG1)
Regarding B6, the “relative ADCP” value in [9] is 1.36 relative to ADCP response of rfmAb-1. Moreover, the results for the “ADCP (RFU)” value in experiment [10] and in experiment [1] were 480000 RFU and 673000 RFU, respectively. The EC50 is less than 0.1 nM in [4]; greater than 50 nM in [11]; 0.062 nM in experiment [12]; 0.062 nM in [5]; 0.062 nM in experiment [2]; 57.6 nM in [6]. Besides, the EC50 in [8] is 57.6 nM; in [13], 67 nM; in experiment [7], 67 nM; in experiment [3] it was 67 nM.

B7: 15M13A (antibody, V domains shown)
VH: QVTLKESGPGILQPSQTLSLTCSFSGFSLSTFGMGVGWIRQPSGKGLEWLAHIWWDDDKYYNPALKSRLTISKDTSKNQVFLKIANVDTADTATYYCARLGYYPYWFFDVWGTGTTVTVSS
VL: QSVLTQPPSVSAAPGQKVTISCSGSSSNIGNHYVSWYQQLPGTAPKLLIYDNNKRPSGIPDRFSGSKSGTSATLGITGLQTGDEADYYCGTWDTSLSAVVFGGGTKLTVL
In the case of B7, in [10], the “ADCP (RFU)” value was found to be 273000 RFU. In addition, the EC50 in experiment [12] was found to be 0.038 nM; in experiment [13], 0.78 nM.
